Reference: the supplement of paper PMC11246515
± gives the standard deviation of the averaged measurements.

Experiment: total protein half-life in vivo (active degradation + dilution); higher = more stable protein
[1] = E. coli NCM3722 delta-clpP, growth: N-lim chemostat, doubling time 6 h
[2] = E. coli NCM3722 delta-hslV, growth: N-lim chemostat, doubling time 6 h
[3] = wild type E. coli NCM3722, growth: C-lim chemostat, doubling time 6 h
[4] = wild type E. coli NCM3722, growth: C-lim chemostat, doubling time 12 h
[5] = E. coli NCM3722 delta-clpP delta-lon delta-hslV, growth: N-lim chemostat, doubling time 6 h
[6] = E. coli NCM3722 delta-lon, growth: N-lim chemostat, doubling time 6 h
[7] = E. coli NCM3722 delta-smpB, growth: N-lim chemostat, doubling time 6 h
[8] = wild type E. coli NCM3722, growth: C-lim chemostat, doubling time 3 h
[9] = wild type E. coli NCM3722, growth: N-lim chemostat, doubling time 6 h
[10] = wild type E. coli NCM3722, growth: N-lim chemostat, doubling time 12 h
[11] = wild type E. coli NCM3722, growth: P-lim chemostat, doubling time 6 h
[12] = wild type E. coli NCM3722, growth: P-lim chemostat, doubling time 12 h

| Sequence | total protein half-life in vivo [1] [h] | total protein half-life in vivo [2] [h] | total protein half-life in vivo [3] [h] | total protein half-life in vivo [4] [h] | total protein half-life in vivo [5] [h] | total protein half-life in vivo [6] [h] | total protein half-life in vivo [7] [h] | total protein half-life in vivo [8] [h] | total protein half-life in vivo [9] [h] | total protein half-life in vivo [10] [h] | total protein half-life in vivo [11] [h] | total protein half-life in vivo [12] [h] |
| --- | --- | --- | --- | --- | --- | --- | --- | --- | --- | --- | --- | --- |
| MTEQQISRTQAWLESLRPKTLPLAFAAIIVGTALAWWQGHFDPLVALLALITAGLLQILSNLANDYGDAVKGSDKPDRIGPLRGMQKGVITQQEMKRALIITVVLICLSGLALVAVACHTLADFVGFLILGGLSIIAAITYTVGNRPYGYIGLGDISVLVFFGWLSVMGSWYLQAHTLIPALILPATACGLLATAVLNINNLRDINSDRENGKNTLVVRLGEVNARRYHACLLMGSLVCLALFNLFSLHSLWGWLFLLAAPLLVKQARYVMREMDPVAMRPMLERTVKGALLTNLLFVLGIFLSQWAA | 5.652 ± 0.0067 | 6.01 | 6.18 | 12.6 | – | – | – | – | – | – | – | – |
| MQNSALKAWLDSSYLSGANQSWIEQLYEDFLTDPDSVDANWRSTFQQLPGTGVKPDQFHSQTREYFRRLAKDASRYSSTISDPDTNVKQVKVLQLINAYRFRGHQHANLDPLGLWQQDKVADLDPSFHDLTEADFQETFNVGSFASGKETMKLGELLEALKQTYCGPIGAEYMHITSTEEKRWIQQRIESGRATFNSEEKKRFLSELTAAEGLERYLGAKFPGAKRFSLEGGDALIPMLKEMIRHAGNSGTREVVLGMAHRGRLNVLVNVLGKKPQDLFDEFAGKHKEHLGTGDVKYHMGFSSDFQTDGGLVHLALAFNPSHLEIVSPVVIGSVRARLDRLDEPSSNKVLPITIHGDAAVTGQGVVQETLNMSKARGYEVGGTVRIVINNQVGFTTSNPLDARSTPYCTDIGKMVQAPIFHVNADDPEAVAFVTRLALDFRNTFKRDVFIDLVCYRRHGHNEADEPSATQPLMYQKIKKHPTPRKIYADKLEQEKVATLEDATEMVNLYRDALDAGDCVVAEWRPMNMHSFTWSPYLNHEWDEEYPNKVEMKRLQELAKRISTVPEAVEMQSRVAKIYGDRQAMAAGEKLFDWGGAENLAYATLVDEGIPVRLSGEDSGRGTFFHRHAVIHNQSNGSTYTPLQHIHNGQGAFRVWDSVLSEEAVLAFEYGYATAEPRTLTIWEAQFGDFANGAQVVIDQFISSGEQKWGRMCGLVMLLPHGYEGQGPEHSSARLERYLQLCAEQNMQVCVPSTPAQVYHMLRRQALRGMRRPLVVMSPKSLLRHPLAVSSLEELANGTFLPAIGEIDELDPKGVKRVVMCSGKVYYDLLEQRRKNNQHDVAIVRIEQLYPFPHKAMQEVLQQFAHVKDFVWCQEEPLNQGAWYCSQHHFREVIPFGASLRYAGRPASASPAVGYMSVHQKQQQDLVNDALNVE [P0AFG3] | 6.43 ± 0.87 | 5.92 ± 0.14 | 5.13 ± 0.19 | 8.677 ± 0.03 | 5.96 ± 0.15 | 5.36 ± 0.23 | 4.99 ± 0.18 | 2.51 ± 0.028 | 5.377 ± 0.027 | 10.1 ± 0.89 | 4.72 ± 0.17 | 9.32 ± 0.68 |
| MNKTQLIDVIAEKAELSKTQAKAALESTLAAITESLKEGDAVQLVGFGTFKVNHRAERTGRNPQTGKEIKIAAANVPAFVSGKALKDAVK [P0ACF0] | 6.29 ± 0.51 | 5.45 ± 0.31 | 5.55 ± 0.72 | 10 ± 0.23 | 7.47 ± 0.039 | 6.06 ± 0.22 | 5.39 ± 0.12 | 3.04 ± 0.19 | 5.15 ± 0.27 | 11.91 ± 0.1 | 4.73 ± 0.92 | 11.1 ± 1.5 |
| MPVRASIEPLTWENAFFGVNSAIVRITSEAPLLTPDALAPWSRVQAKIAASNTGELDALQQLGFSLVEGEVDLALPVNNASDSGAVVAQETDIPALRQLASAAFAQSRFRAPWYAPDASSRFYAQWIENAVRGTFDHQCLILRAASGDIRGYVSLRELNATDARIGLLAGRGAGAELMQTALNWAYARGKTTLRVATQMGNTAALKRYIQSGANVESTAYWLYR | 5.45 ± 0.15 | 5.034 ± 0.029 | 5.9 ± 0.062 | 11.5 | 5.12 ± 0.074 | 5.27 ± 0.26 | 4.7 ± 0.44 | 3.03 ± 0.15 | 5.052 ± 0.012 | 9.31 ± 0.14 | 5.73 ± 0.87 | 12.6 ± 0.52 |
| MLLAGSSLLTLLDDIATLLDDISVMGKLAAKKTAGVLGDDLSLNAQQVSGVRANRELPVVWGVAKGSLINKVILVPLALIISAFIPWAITPLLMIGGAFLCFEGVEKVLHMLEARKHKEDPAQSQQRLEKLAAQDPLKFEKDKIKGAIRTDFILSAEIVAITLGIVAEAPLLNQVLVLSGIALVVTVGVYGLVGVIVKIDDLGYWLAEKSSALMQALGKGLLIIAPWLMKALSIVGTLAMFLVGGGIVVHGIAPLHHAIEHFAGQQSAVVAMILPTVLNLILGFIIGGIVVLGVKAVEKMRGQAH | – | 5.53 ± 0.22 | 5.92 ± 1.3 | 10.3 ± 1.3 | 5.24 ± 0.46 | 5.52 ± 0.47 | 5.54 ± 0.83 | 3.16 ± 0.37 | 5.79 ± 0.4 | 12.22 ± 0.064 | 5.22 ± 0.29 | 10.4 ± 0.92 |
